This is an account of results in patent publication US20220298235A1 (AKESO BIOPHARMA, published 2022).

Where a chain is given by its changes, count along the chain named.

The target of assay [1] is T1, human p40-His (human, UniProt P29460 23-328).
T1 construct: Made by Akeso Biopharma; construct limits and tag not described; also called human IL-12/IL-23 p40 protein domain; human IL-12/IL-23 p40; not shown: His tag
T1 sequence (looked up): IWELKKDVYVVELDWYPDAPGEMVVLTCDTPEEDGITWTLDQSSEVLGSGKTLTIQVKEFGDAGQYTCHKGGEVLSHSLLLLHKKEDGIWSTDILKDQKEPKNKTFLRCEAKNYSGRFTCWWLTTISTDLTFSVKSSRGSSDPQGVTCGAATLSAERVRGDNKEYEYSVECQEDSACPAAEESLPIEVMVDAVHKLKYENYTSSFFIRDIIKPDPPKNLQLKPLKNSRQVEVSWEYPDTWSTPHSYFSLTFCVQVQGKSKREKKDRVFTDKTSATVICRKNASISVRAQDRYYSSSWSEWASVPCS
Briefly: indirect ELISA, p40-His coat 0.125 µg/mL. Here is the method:
(§1) A microplate was coated with human p40-His (Akeso Biopharma, Inc.; gene of p40: GeneBank NM002187). After incubation at 4° C. for no less than 12 h, the plate was washed with PBST, patted dry and blocked with a solution of 1% BSA in PBS. After blocking was completed, the plate was washed with PBST and patted dry. The antibody diluted with PBST solution in gradient was added into the wells of the plate, and the antibody dilution gradient is detailed in Table 1. The plate containing the test antibody was incubated at 37° C. for 30 min and then washed with PBST and patted dry. […] TMB (Neogen, 308177) was added for color developing for 5 min in the absence of light, and then stop solution was added to terminate the chromogenic reaction. Then the plate was put into a plate reader immediately, and the OD value of each well in the plate was read at 450 nm. The data were analyzed by SoftMax Pro 6.2.1.
The binding EC₅₀ of antibody was calculated by curve fitting using antibody concentration as the abscissa and absorbance value as the ordinate, and the results are shown in Table 2 below.
(ELISA stands for enzyme-linked immunosorbent assay.)

Assay [2] has as its target T1, human p40-His. The assay is described as follows: indirect ELISA, p40-His coat 0.125 µg/mL. Here is the method:
as §1
The binding EC₅₀ of antibody was calculated by curve fitting using antibody concentration as the abscissa and absorbance value as the ordinate, and the results are shown in Table 1 below.
This is another data set of the same source.

The target of assay [3] is T1, human p40-His. Briefly: indirect ELISA, p40-His coat 0.125 µg/mL. Here is the method:
as §1
The detection results of the binding of antibodies H5L11, H5L12, H5L14 and Ab123FR1 to the antigen human p40-His are shown in FIG. 3. The binding EC₅₀ of antibody was calculated by curve fitting using antibody concentration as the abscissa and absorbance value as the ordinate, and the results are shown in Table 3 below.
This is another data set of the same source.

Assay [4] addresses T1, human p40-His. The assay is described as follows: indirect ELISA, p40-His coat 0.25 µg/mL. The protocol:
as §1
The binding EC₅₀ of antibody was calculated by curve fitting using antibody concentration as the abscissa and absorbance value as the ordinate, and the results are shown in Table 4 below.

The target of assay [5] is T2, human IL-23 (IL-23-His-Biotin) (human, UniProt Q9NPF7 20-189; P29460 23-328, biotin label, site not stated).
T2 construct: Akesobio lot 20161209; His-tagged and biotinylated
T2 sequence (looked up) 1: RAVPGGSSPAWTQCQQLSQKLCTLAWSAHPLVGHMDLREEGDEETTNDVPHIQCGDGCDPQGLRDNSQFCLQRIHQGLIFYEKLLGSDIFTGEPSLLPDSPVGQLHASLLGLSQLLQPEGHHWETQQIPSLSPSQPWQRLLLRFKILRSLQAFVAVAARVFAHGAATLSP
T2 sequence (looked up) 2: T1 sequence (looked up)
Briefly: FACS competition, IL23-His-Biotin (4 µg/mL mixed 1:1) on 293T-IL-12Rβ1&IL-23R cells. Here is the method:
200 μL of 1% PBSA was added into each sample, and the mixture was centrifuged at 1200 rpm for 5 min to discard the supernatant. According to experiment design, correspondingly diluted antibody (highest concentration of 60 μg/mL, 3-fold dilution, 8 concentrations in total) and human IL23-His-Biotin (Akeso Biopharma, Inc., Lot. No.: 20161209) (4 μg/mL) were mixed at a ratio of 1:1, and a blank control was set. The mixture of antibody and IL23-His-Biotin was incubated on ice for 30 min and then added to the cell precipitate at 100 μL/sample. The resulting mixture was well mixed and incubated on ice for 60 min. 200 μL of 1% PBSA was added, and the mixture was centrifuged at 1200 rpm for 5 min to discard the supernatant, and then washed twice. FITC Steptavidin (Biolegend, Cat. No.: 405202) was diluted at a ratio of 1:500 and added to each tube at 100 μL. The mixture was well mixed and incubated on ice for 40 min in the absence of light. 200 μL of 1% PBSA was added, and the mixture was centrifuged at 1200 rpm for 5 min to discard the supernatant, and then washed twice. 1% PBSA was added at 200 μL/tube, and the cells were resuspended and transferred to a flow cytometry tube for testing.

The target in a further assay is T3, Human IL12 (His Tag) (human, UniProt P29459 23-219; P29460 23-328).
T3 construct: Bought His-tagged heterodimer
T3 sequence (looked up) 1: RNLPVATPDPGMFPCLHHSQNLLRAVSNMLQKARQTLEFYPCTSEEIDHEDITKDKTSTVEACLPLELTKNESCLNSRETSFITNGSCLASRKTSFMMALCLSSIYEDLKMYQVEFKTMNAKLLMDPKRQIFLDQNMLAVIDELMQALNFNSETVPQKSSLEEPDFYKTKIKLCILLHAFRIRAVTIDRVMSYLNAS
T3 sequence (looked up) 2: T1 sequence (looked up)
Briefly: FACS competition, IL12-His (40 nM mixed 1:1) on 293T-IL-12Rβ1&IL-23R cells. Here is the method: 200 μL of 1% PBSA was added into each sample, and the mixture was centrifuged at 1200 rpm for 5 min to discard the supernatant. According to experiment design, correspondingly diluted antibody (highest final concentration of 60 μg/mL, 3-fold dilution, 8 concentrations in total) and IL12-His (Sino Biological, Cat. No.: CT-050-H08H-20) (40 nM) were mixed at a ratio of 1:1, and a blank control was set. The mixture of antibody and IL12 was incubated on ice for 30 min and then added to the cell precipitate at 100 μL/sample. The resulting mixture was well mixed and incubated on ice for 60 min 200 μL of 1% PBSA was added, and the mixture was centrifuged at 1200 rpm for 5 min to discard the supernatant, and then washed twice. THETM His tag antibody (FITC) (Genscript, Cat. No.: A01620) was diluted at a ratio of 1:500 and added to each tube at 100 μL. The mixture was well mixed and incubated on ice for 40 min in the absence of light. 200 μL of 1% PBSA was added, and the mixture was centrifuged at 1200 rpm for 5 min to discard the supernatant, and then washed twice. 1% PBSA was added at 200 μL/tube, and the cells were resuspended and transferred to a flow cytometry tube for testing.

B1: H5L10 (antibody, human IgG1, kappa, V domains shown)
VH: EVQLVQSGAEVKKPGESLKISCQSSGYSFTTYWIGWVRQMPGQGLEWIGIMSPVDSDIRYNPMFRGQVTMSVDKSSSTAYLQWSSLKASDTAMYYCARRRPGQGYFDFWGQGTMVTVSS
VL: EIVLTQSPATLSASPGERATISCRASQSVGSWLAWYQQKPGQAPRSLIYAASNLQSGIPARFSGSGSGTDFTLTISSLEPEDFAVYYCQQYNIYPYTFGQGTRLEIKR
notes: human IgG1 / kappa constant regions; also called humanized antibody H5L10
B1: the EC50 (in general, the midpoint of the concentration-response curve) with human p40-His [1] is 57 pM.

B2: H5L9 (antibody, human IgG1, kappa, V domains shown)
VH: B1 VH
VL: DIQMTQSPSSLSASVGDRVTITCKASQNVGSWLAWYQQKPGKAPKSLIYSASSRQSGVPSRFSGSGSGTDFTLTISSLQPEDFATYYCQQYDIYPFTFGQGTKLEIKR
notes: human IgG1 (P01857) / kappa (P01834) constant regions; also called humanized antibody H5L9
B2 showed an EC50 with human p40-His [2] of 79 pM.

B3: H5L11 (antibody, human IgG1, kappa, V domains shown)
VH: B1 VH
VL: B1 VL with G30S, A50S
notes: human IgG1 / kappa constant regions; also called humanized antibody H5L11
B3 yielded an EC50 with human p40-His [3] of 82 pM.

B4: H5L12 (antibody, human IgG1, kappa, V domains shown)
VH: B1 VH
VL: B1 VL with G30S, L54R
notes: human IgG1 / kappa constant regions; also called humanized antibody H5L12
In the assay with human p40-His [3], B4 had an EC50 of 82 pM.

B5: H5L14 (antibody, human IgG1, kappa, V domains shown)
VH: B1 VH
VL: B1 VL with G30S, Y96F
notes: human IgG1 / kappa constant regions; also called humanized antibody H5L14
In the assay with human p40-His [3], B5 displayed an EC50 of 107 pM.

B6: ustekinumab (antibody, V domains shown)
VH: EVQLVQSGAEVKKPGESLKISCKGSGYSFTTYWLGWVRQMPGKGLDWIGIMSPVDSDIRYSPSFQGQVTMSVDKSITTAYLQWNSLKASDTAMYYCARRRPGQGYFDFWGQGTLVTVSS
VL: DIQMTQSPSSLSASVGDRVTITCRASQGISSWLAWYQQKPEKAPKSLIYAASSLQSGVPSRFSGSGSGTDFTLTISSLQPEDFATYYCQQYNIYPYTFGQGTKLEIK
With B6, the values for the EC50 (with human p40-His [4]; in assay [5]; with Human IL12 (His Tag)) were 77 pM, 1.43 µg/mL and 1.58 µg/mL, respectively.
